In series [1] the target is Cy3-pol η (human DNA polymerase eta, full length, N-terminally labeled with Cy3) (human) (UniProt Q9Y253). Briefly: FRET or BRET; competitive inhibition: pre-assembled Cy3-Pol η•Cy5-PCNA complex (200 nM Cy3-Pol η, 20 nM Cy5-PCNA) titrated with unlabeled competitor (PCNA, (Ub)3-PCNA or pol η, 0-5 μM); dose-response model, Ki from IC50 by the Munson-Rodbard solution; room temperature; replication assay buffer, ionic strength 200 mM. On the technique in general: In BRET a luciferase serves as donor, and the signal depends on an acceptor being close.

In series [2] the target is Wild-type PCNA (human) (human) (UniProt P12004).
In series [3] the test system is DNA polymerase eta (pol η);Cy5-PCNA (human;human). In words: FRET. The following applies: pol η titrated onto Cy5-PCNA loaded by RFC (100 nM each), 1 mM ATP; 3'-biotin (Neutravidin bound); 25 mM TrisOAc pH 7.7, 10 mM Mg(OAc)2, 125 mM KOAc, 0.1 mg/ml BSA, 1 mM DTT, ionic strength adjusted to 200 mM with KOAc, room temperature.
Series [4] concerns DNA polymerase delta (pol δ), exonuclease-deficient;Cy5-PCNA (human;human). In words: FRET. The conditions noted are these: 3'-biotin (Neutravidin bound); 25 mM TrisOAc pH 7.7, 10 mM Mg(OAc)2, 125 mM KOAc, 0.1 mg/ml BSA, 1 mM DTT, ionic strength adjusted to 200 mM with KOAc, room temperature; cited from earlier work.
Series [5] deals with DNA polymerase eta (pol η) (human). In words: fluorescence anisotropy. The following applies: 10 mM Mg2+; 25 mM TrisOAc pH 7.7, 10 mM Mg(OAc)2, 125 mM KOAc, 0.1 mg/ml BSA, 1 mM DTT, ionic strength adjusted to 200 mM with KOAc, room temperature. In general terms: Polarisation of emitted light reports the rotation of a fluorescent probe.
Series [6] concerns DNA polymerase delta (pol δ), exonuclease-deficient (human). In words: fluorescence anisotropy. The following applies: 10 mM Mg2+; estimated from partial binding curve, single measurements; 25 mM TrisOAc pH 7.7, 10 mM Mg(OAc)2, 125 mM KOAc, 0.1 mg/ml BSA, 1 mM DTT, ionic strength adjusted to 200 mM with KOAc, room temperature.

Consider 4 substances from paper PMC5123862.

What is called Ki is the dissociation constant of the complex between target and ligand, obtained from inhibition or displacement. Higher therefore signals lower affinity. What is called Kd is a measure of binding affinity in units of concentration.

Some results are limits rather than exact numbers.

Cy3-pol η (human DNA polymerase eta, full length, N-terminally labeled with Cy3) (human), sequence (Q9Y253 whole entry): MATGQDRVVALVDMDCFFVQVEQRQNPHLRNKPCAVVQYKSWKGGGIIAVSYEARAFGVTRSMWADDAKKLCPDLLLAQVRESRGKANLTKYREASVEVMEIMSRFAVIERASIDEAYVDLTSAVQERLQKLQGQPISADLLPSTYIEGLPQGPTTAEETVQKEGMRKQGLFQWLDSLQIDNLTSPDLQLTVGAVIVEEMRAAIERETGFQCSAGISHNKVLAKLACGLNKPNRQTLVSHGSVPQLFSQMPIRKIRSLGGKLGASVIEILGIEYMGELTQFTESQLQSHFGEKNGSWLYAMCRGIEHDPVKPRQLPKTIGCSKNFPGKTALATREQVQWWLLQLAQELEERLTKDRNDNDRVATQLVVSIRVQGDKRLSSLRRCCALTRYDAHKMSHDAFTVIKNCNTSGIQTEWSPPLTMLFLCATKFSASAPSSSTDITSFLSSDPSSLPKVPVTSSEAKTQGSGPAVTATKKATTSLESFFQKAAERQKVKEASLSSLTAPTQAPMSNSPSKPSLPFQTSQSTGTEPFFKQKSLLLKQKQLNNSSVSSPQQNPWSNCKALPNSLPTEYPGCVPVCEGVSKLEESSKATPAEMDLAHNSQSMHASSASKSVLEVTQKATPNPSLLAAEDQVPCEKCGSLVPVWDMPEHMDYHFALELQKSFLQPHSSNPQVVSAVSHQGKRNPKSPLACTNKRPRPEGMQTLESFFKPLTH
Wild-type PCNA (human) (human), sequence (P12004 whole entry): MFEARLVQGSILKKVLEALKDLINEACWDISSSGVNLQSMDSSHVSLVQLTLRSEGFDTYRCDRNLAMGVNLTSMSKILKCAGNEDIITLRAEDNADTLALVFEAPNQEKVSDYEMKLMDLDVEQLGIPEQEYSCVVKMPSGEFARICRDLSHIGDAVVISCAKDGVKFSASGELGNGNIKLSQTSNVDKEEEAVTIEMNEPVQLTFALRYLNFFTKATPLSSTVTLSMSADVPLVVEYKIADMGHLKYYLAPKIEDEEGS

“Monoubiquitinated PCNA ((Ub)3-PCNA): a single ubiquitin moiety on K164 of each monomer within a homotrimeric clamp ring (from UniProt P12004 1-261; P0CG48 1-76) (complex)”: the Ki in series [1] came out at 119 nM.

With “Exonuclease-deficient human DNA polymerase delta (D402A in the catalytic POLD1 subunit) (from UniProt P28340 1-1107) (complex)”, the probability of insertion (Pi) of pol δ in single turnover primer extension on TT P/T DNA in the presence of PCNA (plateau i = 15 to i = 25); no DNA synthesis without PCNA in series [2] amounted to 0.999.

On to Forked Cy3-P/T DNA, for which the Kd in series [3] was 28 nM; in series [4], below 10 nM.

FLUOR-P/T DNA: the results for the Kd in series [5] and in series [6] were 29.7 nM and 537 nM, respectively.
